# Laboratory results taken from paper PMC3471833.
# Biological target: human complement C1 esterase inhibitor (human) (UniProt P05155)
# Sequence of UniProt P05155 (P05155 23-500): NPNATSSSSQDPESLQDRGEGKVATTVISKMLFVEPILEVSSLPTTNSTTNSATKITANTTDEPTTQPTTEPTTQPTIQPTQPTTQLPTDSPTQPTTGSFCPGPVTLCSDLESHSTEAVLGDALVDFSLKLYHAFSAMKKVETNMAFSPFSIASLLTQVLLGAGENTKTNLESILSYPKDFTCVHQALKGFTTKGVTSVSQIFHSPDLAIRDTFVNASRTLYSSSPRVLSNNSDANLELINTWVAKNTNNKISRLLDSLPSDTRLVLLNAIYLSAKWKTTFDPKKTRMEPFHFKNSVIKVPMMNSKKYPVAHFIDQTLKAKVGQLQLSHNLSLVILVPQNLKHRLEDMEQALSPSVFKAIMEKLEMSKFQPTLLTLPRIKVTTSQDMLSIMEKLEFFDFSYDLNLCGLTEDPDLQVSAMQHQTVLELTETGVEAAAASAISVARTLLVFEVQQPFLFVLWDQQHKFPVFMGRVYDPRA
substance,measurement,value
Activated C1s (enzyme),"percentage of dead E. coli BL21 (Live/Dead staining) after antibody 2E4 and human complement plasma treated with OSCS (25.5% without GAG, 26.5% with CSA)",8%
